Target: the molecule itself
Assay: nondenaturing 4-20% PAGE and western blot of 1 ug recombinant TbPRMT7-His

B1: recombinant TbPRMT7-His (enzyme)
chain: MPPKQHRHQKKDKNDNALQNTIGFVPPGATLASVSGYRPPDAFVNRIDRNIPVPARLRHTPVSLIEAVNDFHYAMMNDEERNNFYYEVLKKHVTPETGVLEIGAGSGLLSLMAAKLGAKWVVAVEGSEELAKLARENIRANNMEHQVKVLHMMSTELKSKHLPEPPDVLLSEIFGTMMLGESALDYVVDVRNRLLKPTTKIIPQFGTQYAVPIECDALHRISSVSGWRDLDLKHMMTLQDTVSIVFAKHYGIRMNSVNFRRLSDPIELFRVDFSSSNRNDIPRRKHFDVVAKESGTAHAMLFYWKVTDDEFVMSTDPEDTVNNFPRDMQWGQALQLLDASNGPLPTPVVFTEGKNYNFECNFSGDRVILHMQLCPESGNGEMTECEGKTT
notes: also called T. brucei PRMT7; Tb927.7.5490; not shown: His tag
- binding result: binds

From patent publication US20100047893A1 (RESEARCH FOUNDATION OF STATE UNIVERSITY OF NEW YORK, published 2010)
